From publication PMC5041007, “AglM and VNG1048G, Two Haloarchaeal UDP-Glucose Dehydrogenases, Show Different Salt-Related Behaviors” (Life, 2016)

Target: the molecule itself
Test: SEC; Hi-Load Superdex 200 16/60 directly after Ni-NTA chromatography; 2 M NaCl, 5 mM MgCl2, 50 mM Tris-HCl, pH 9.2; 1 mL/min; masses from a calibration curve of marker proteins (12.4-200 kDa)

B1: Haloferax volcanii AglM, C-terminally polyhistidine-tagged (enzyme, UniProt D4GYH5 1-430, looked up)
chain: MELSIIGSGYVGTTIAACFAELGHDVVNVDIDEDIVASLNDGQAPIHEPGLAELVERYAGDRLRATTDYDEILDTDATFLALPTPSTDDGSIDLGAMKTAATSLGETLARKDDSHLVVTKSTVVPRTTVDVIGPRIEEASGKRVGDGLDIAMNPEFLREGTAVDDFLSPDKIVLGAQTDRAYETLAEIFAPLVERAGNPPVVKTGISEAEMIKYANNAFLASKISLANDLANICKVFGVDSAEVLESIGLDSRIGSAFLGAGLGWGGSCFPKDTAAIIAAARAQGYEPRLLQAAVDVNDGQPERMLDLLRERFDLDGKRVAVLGLAFKPGTDDIRKSRAILLIQALLDAGADVVGYDPVATENMRERFPDIDYADSAADALANADAALVATDWDEFAALDDEFDAMRERIVIDGRRIVTRREGLDYESLV
notes: AglM, UDP-glucose dehydrogenase of Haloferax volcanii, 430 residues; gene amplified from genomic DNA with primers at the start and end of the gene; Calculated mass of the His-tagged chain close to 47 kDa; also called His-tagged AglM; UDP-glucose dehydrogenase; source: Hfx. volcanii cells transformed with pHis-AglM, purified (Ni-NTA, then size-exclusion chromatography); not shown: polyhistidine, …
stoichiometry N: 12
